Assays:
[1] = target: uPA receptor (urokinase-type plasminogen activator receptor) on U937 cells (UniProt Q03405); assay: competition receptor-binding assay on U937 cells, ATF as competing ligand, metallopeptide at 1 µM
[2] = target: oxytocin receptor of rat uterus cell membranes (rat) (UniProt P70536); assay: competition with 3H-oxytocin on rat uterus membranes, metallopeptide at 1 µM
[3] = target: vasopressin-1 receptor of rat liver cell membranes (rat) (UniProt P30560); assay: competition with 3H-vasopressin-1 antagonist on rat liver membranes, metallopeptide at 1 µM
[4] = target: angiotensin-II receptor of human neuroblastoma cells (KAN-TS) (human); assay: competition with 125I-Tyr4,Sar1,Ile8-angiotensin II on KAN-TS human neuroblastoma cell membranes, metallopeptide at 1 µM
angiotensin-II receptor of human neuroblastoma cells (KAN-TS) (human), sequence (P30556 whole entry): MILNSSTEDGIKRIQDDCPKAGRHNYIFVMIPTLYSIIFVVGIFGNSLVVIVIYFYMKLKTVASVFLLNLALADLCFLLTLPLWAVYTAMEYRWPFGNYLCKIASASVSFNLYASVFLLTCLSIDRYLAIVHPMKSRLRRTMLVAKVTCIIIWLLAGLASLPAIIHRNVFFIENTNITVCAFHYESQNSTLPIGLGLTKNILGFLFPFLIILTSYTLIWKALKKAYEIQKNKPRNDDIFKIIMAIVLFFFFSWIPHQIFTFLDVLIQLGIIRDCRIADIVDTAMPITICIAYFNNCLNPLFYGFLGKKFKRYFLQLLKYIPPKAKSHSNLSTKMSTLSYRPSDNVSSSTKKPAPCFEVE

uPA receptor (urokinase-type plasminogen activator receptor) on U937 cells, sequence (Q03405 23-305): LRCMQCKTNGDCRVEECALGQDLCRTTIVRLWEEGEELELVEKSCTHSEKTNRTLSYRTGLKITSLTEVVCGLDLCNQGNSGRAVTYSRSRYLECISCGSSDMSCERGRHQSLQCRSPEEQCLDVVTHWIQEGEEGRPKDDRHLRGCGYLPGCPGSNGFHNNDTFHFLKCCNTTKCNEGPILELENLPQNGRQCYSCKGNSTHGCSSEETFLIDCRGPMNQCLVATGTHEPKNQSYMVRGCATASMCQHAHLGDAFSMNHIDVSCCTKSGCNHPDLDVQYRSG
vasopressin-1 receptor of rat liver cell membranes (rat), sequence (P30560 whole entry): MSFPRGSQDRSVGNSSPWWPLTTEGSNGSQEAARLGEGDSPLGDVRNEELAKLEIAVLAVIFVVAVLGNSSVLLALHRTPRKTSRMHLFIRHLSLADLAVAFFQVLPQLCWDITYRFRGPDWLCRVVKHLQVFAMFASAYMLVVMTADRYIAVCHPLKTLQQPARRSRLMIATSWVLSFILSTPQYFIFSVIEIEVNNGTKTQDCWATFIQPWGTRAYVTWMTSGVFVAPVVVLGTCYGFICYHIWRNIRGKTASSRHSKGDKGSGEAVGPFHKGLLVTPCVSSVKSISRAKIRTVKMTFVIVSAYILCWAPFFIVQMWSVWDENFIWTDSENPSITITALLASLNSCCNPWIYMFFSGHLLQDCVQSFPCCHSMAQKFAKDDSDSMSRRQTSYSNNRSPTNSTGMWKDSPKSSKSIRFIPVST
oxytocin receptor of rat uterus cell membranes (rat), sequence (P70536 whole entry): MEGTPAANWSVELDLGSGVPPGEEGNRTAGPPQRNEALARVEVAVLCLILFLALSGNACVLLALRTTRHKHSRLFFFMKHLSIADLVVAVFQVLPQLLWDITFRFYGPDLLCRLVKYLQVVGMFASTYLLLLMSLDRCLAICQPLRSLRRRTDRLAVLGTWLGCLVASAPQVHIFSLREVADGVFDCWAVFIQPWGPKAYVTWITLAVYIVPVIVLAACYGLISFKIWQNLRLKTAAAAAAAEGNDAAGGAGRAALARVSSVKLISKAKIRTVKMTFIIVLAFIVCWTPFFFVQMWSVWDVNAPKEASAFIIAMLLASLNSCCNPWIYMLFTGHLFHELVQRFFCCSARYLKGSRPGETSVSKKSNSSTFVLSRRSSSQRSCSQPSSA

Substance | % Inhibition at 1 µM [1] [%] | % Inhibition at 1 µM [2] [%] | % Inhibition at 1 µM [3] [%] | further results
Re-complexed Ac-Val-Ser-Asn-Cys-Lys-Tyr-Phe-Ser-Asn-Ile-His-Trp-NH2 (SEQ ID NO:5) (peptide) | 0 | – | – | –
Re-complexed Ac-Val-Ser-Asn-Lys-Tyr-Phe-Ser-Asn-Cys-Ile-His-Trp-NH2 (SEQ ID NO:10) (peptide) | 32 | – | – | –
Re-complexed Ac-Val-Ser-Asn-Lys-Tyr-Phe-Ser-Asn-Ile-Cys-His-Trp-NH2 (SEQ ID NO:11) (peptide) | 0 | – | – | –
Re-complexed Ac-Val-Ser-Asn-Lys-Tyr-Phe-Ser-Asn-Ile-His-Cys-Trp-NH2 (SEQ ID NO:3) (peptide) | 106 | – | – | –
Re-complexed Ac-Val-Ser-Asn-Lys-Tyr-Phe-Ser-Asn-Ile-His-Trp-Cys-NH2 (SEQ ID NO:12) (peptide) | 0 | – | – | –
Re-complexed Ac-Val-Ser-Cys-Asn-Lys-Tyr-Phe-Ser-Asn-Ile-His-Trp-NH2 (SEQ ID NO:4) (peptide) | 0 | – | – | –
Re-complexed Ala-Tyr-Cys-Ile-Gln-Asn-Ala-Pro-Leu-Gly-NH2 (SEQ ID NO:158) (peptide) | – | 6 | 1 | –
Re-complexed Ala-Tyr-Ile-Gln-Asn-Ala-Ala-Leu-Gly-Cys-NH2 (SEQ ID NO:150) (peptide) | – | 0 | 0 | –
Re-complexed Ala-Tyr-Ile-Gln-Asn-Ala-Cys-Ala-Leu-Gly-NH2 (SEQ ID NO:154) (peptide) | – | 31 | 0 | –
Re-complexed Ala-Tyr-Ile-Gln-Asn-Cys-Ala-Pro-Leu-Gly-NH2 (SEQ ID NO:155) (peptide) | – | 42 | 0 | –
Re-complexed Ala-Tyr-Ile-Gln-Cys-Asn-Ala-Pro-Leu-Gly-NH2 (SEQ ID NO:156) (peptide) | – | 18 | 0 | –
Re-complexed Sar-Arg-Cys-Val-Tyr-Ile-His-Pro-Thr (SEQ ID NO:165) (peptide) | – | – | – | % Inhibition at 1 µM [4]: 1%
Re-complexed Sar-Arg-Val-Cys-Tyr-Ile-His-Pro-Thr (SEQ ID NO:164) (peptide) | – | – | – | % Inhibition at 1 µM [4]: 1%
Re-complexed Sar-Arg-Val-Tyr-Cys-Ile-His-Pro-Thr (SEQ ID NO:163) (peptide) | – | – | – | % Inhibition at 1 µM [4]: 12%
Re-complexed Sar-Arg-Val-Tyr-Ile-Cys-His-Pro-Thr (SEQ ID NO:162) (peptide) | – | – | – | % Inhibition at 1 µM [4]: 20%
Re-complexed Sar-Arg-Val-Tyr-Ile-His-Cys-Gly-Thr (SEQ ID NO:166) (peptide) | – | – | – | % Inhibition at 1 µM [4]: 11%
Re-complexed Sar-Arg-Val-Tyr-Ile-His-Cys-Pro-Thr (SEQ ID NO:161) (peptide) | – | – | – | % Inhibition at 1 µM [4]: 60%
Re-complexed Sar-Arg-Val-Tyr-Ile-His-Gly-Cys-Thr (SEQ ID NO:160) (peptide) | – | – | – | % Inhibition at 1 µM [4]: 5%

The next lines start with results.

% Inhibition at 1 µM [1] [%] | % Inhibition at 1 µM [2] [%] | % Inhibition at 1 µM [3] [%] | Substance | further results
13 | – | – | Re-complexed Ac-Val-Ser-Asn-Lys-Cys-Tyr-Phe-Ser-Asn-Ile-His-Trp-NH2 (SEQ ID NO:6) (peptide) | –
18 | – | – | Re-complexed Ac-Val-Ser-Asn-Lys-Tyr-Cys-Phe-Ser-Asn-Ile-His-Trp-NH2 (SEQ ID NO:7) (peptide) | –
0 | – | – | Re-complexed Ac-Val-Ser-Asn-Lys-Tyr-Phe-Cys-Ser-Asn-Ile-His-Trp-NH2 (SEQ ID NO:8) (peptide) | –
35 | – | – | Re-complexed Ac-Val-Ser-Asn-Lys-Tyr-Phe-Ser-Cys-Asn-Ile-His-Trp-NH2 (SEQ ID NO:9) (peptide) | –
– | 0 | 0 | Re-complexed Ala-Tyr-Ile-Cys-Gln-Asn-Ala-Pro-Leu-Gly-NH2 (SEQ ID NO:157) (peptide) | –
– | 0 | 1 | Re-complexed Ala-Tyr-Ile-Gln-Asn-Ala-Ala-Cys-Leu-Gly-NH2 (SEQ ID NO:152) (peptide) | –
– | 0 | 0 | Re-complexed Ala-Tyr-Ile-Gln-Asn-Ala-Ala-Leu-Cys-Gly-NH2 (SEQ ID NO:151) (peptide) | –
– | 2 | 0 | Re-complexed Ala-Tyr-Ile-Gln-Asn-Ala-Cys-Pro-Leu-Gly-NH2 (SEQ ID NO:153) (peptide) | –
– | 6 | 0 | Re-complexed Ala-Tyr-Ile-Gln-Asn-Ala-Pro-Leu-Gly-Cys-NH2 (SEQ ID NO:149) (peptide) | –
